± gives the half width of the 95% confidence interval.
How the values were obtained:
[1] = folding stability dG unfold from chymotrypsin proteolysis; higher = more stable
Procedure, shortened: (§1)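 Designed mini-proteins with no cysteine and under 80 residues were kept only if AlphaFold2 dimer inter-PAE was above 15. In a PA-tagged cDNA display construct, they were digested with trypsin and chymotrypsin and then sequenced. K50 was inferred by Bayesian fitting of counts, and unfolding free energy was derived per protease or combined against a sequence-predicted unfolded-state K50 and a shared folded-state K50.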

[2] = folding stability dG unfold (combined trypsin and chymotrypsin); higher = more stable
Procedure, shortened: as §1

[3] = folding stability dG unfold from trypsin proteolysis; higher = more stable
Procedure, shortened: as §1

| Sequence | folding stability dG unfold [1] [kcal/mol] | folding stability dG unfold [2] [kcal/mol] | folding stability dG unfold [3] [kcal/mol] |
| --- | --- | --- | --- |
| SAGGSAGGEKEYIIKIKLEMPNGREMKHWFPFKTVEQIKDQLRKLPDPNYKIDDVEIMPADELKSAGGSAGG [r6_297_TrROS] | 0.594 ± 0.15 | 0.263 ± 0.12 | -0.237 ± 0.14 |
| SAGGSSMPLVKKEVDATRPDGSPLSFEEYLSSLKPNIRSEPIPNGKTVVTAPDPATGSTYTITIEESAGGSA [r2_234_JUSTAS] | -0.37 ± 0.14 | -0.428 ± 0.079 | -1.31 ± 0.19 |
| DLDITDPALVPVPERNYPFTVVSLTGPGNGAVTVELTLDGQTVSATVDPSTGTVTFTFPGTGASAVATADPS [r1_125_TrMRF] | 1.61 ± 0.08 | 1.68 ± 0.12 | 1.69 ± 0.087 |
| SAGGSAGGSAEPEKKYNVKVTFYNPNTGELVLEAEFPNMTIDEVKELAKKLGLEIVKIEVGSAGGSAGGSAG [r3_423_TrMRF] | 4.43 ± 0.061 | 4.48 ± 0.13 | 4.37 ± 0.27 |
| SAGGSAGGSWMLMVKIEFPENGQERHFMLPPGMTIEDIADRLREDGAPIKDIEVQWMPLPPGDSAGGSAGGS [r12_955_TrROS] | 1.62 ± 0.086 | 1.62 ± 0.072 | 1.47 ± 0.033 |
| SAGGKVLVFYAPSPELIEKWAKELGLKLKKVSKEGDKFVAEFELPSGEKVLVVADEEAFKKLGIDPEKISAG [r5_12_TrMRF] | 4.09 ± 0.12 | 3.74 ± 0.18 | 2.93 ± 0.1 |
| SAGGSAGGSAGTIPLDNIKEVELEYDPNSGYYEHRIEFPNGRRLVIRFPPSDNVEIQWLDSAGGSAGGSAGG [r17_182_TrROS] | 1.33 ± 0.062 | 1.31 ± 0.092 | 1.09 ± 0.025 |
| SAGKEKKPPKKVTLTLEIEIEVPEEEEEKAKELAEELEEELRKLGIEKVEVEYDKETKRVRIRVTVVLPSAG [r5_512_TrROS_Hall] | 3.01 ± 0.094 | 2.74 ± 0.36 | 2.22 ± 0.086 |
| SAGGSAGGSAGGSSGTSVSTEVSSSPVVTKTEYTKLDDGWSTTTTVVSTLPNALAPELTTSAGGSAGGSAGG [r7_845_JUSTAS] | 0.255 ± 0.024 | 0.727 ± 0.079 | 1.06 ± 0.082 |
| SAGGSAGGSAGGKKVIKVKVRIYPVDGSFEEKEVEAESLEELLEKVLEETHPESLIFIGSAGGSAGGSAGGS [r10_145_TrMRF] | 0.14 ± 0.067 | 0.59 ± 0.16 | 0.912 ± 0.086 |
| SAGGKKYYLIKITVKTEKKEYTLPDGSKVTVEKTYELTIIVESKEEAEKLAEELAKKYNLEVEIVPLSAGGS [r8_131_TrROS_Hall] | 4.83 ± 0.064 | 4.51 ± 0.13 | 2.95 ± 0.13 |
| SAGGSAGGEPPPVVITVTVRNPATGETVKATAVLNPDGTLQVTVTRPDGSKQTFTATISAEALKSAGGSAGG [r6_588_TrROS_Hall] | 3.86 ± 0.15 | 3.63 ± 0.34 | 2.76 ± 0.33 |
| SAEVRARLEYDPVSGDLVLEVERPLPNGDVIRARVDLVNPVLRVEHLPVRDGVPLPRETELDLPADALVSAG [r14_64_TrMRF] | 0.855 ± 0.039 | 0.766 ± 0.067 | 0.394 ± 0.084 |
| SAGGSAKEEIRLVIEVDGKLIEITIPKDKITKVEFDKETGKITITVKVNGKELKLVFTDGKAKLVESAGGSA [r15_598_TrROS_Hall] | 2.6 ± 0.12 | 2.47 ± 0.17 | 2.27 ± 0.14 |
| SAGGSAGGSAGGKFKIVKVEKVKNENGEEYVRVYLYNKDGKPVKEFTMSKEELEKLLKELSAGGSAGGSAGG [r7_891_TrROS_Hall] | 2.96 ± 0.051 | 2.88 ± 0.15 | 2.72 ± 0.11 |
| SAGGSASVSPVTLPLEVAPDEEVEGTLTLTLPSGPTVTYTAEITEVSPDGTANPVVTIDDTPVVVESAGGSA [r15_844_JUSTAS] | 0.392 ± 0.091 | 0.965 ± 0.045 | 1.39 ± 0.053 |
| SAGGMSVVIPVRPEDREEVRELLEALPSEDVKVVIYNPVTGEKREVTPEEARALLEATDEPLVIEVRSAGGS [r16_263_TrMRF] | 1.89 ± 0.023 | 1.84 ± 0.041 | 1.68 ± 0.046 |

— the supplement of paper PMC12764529
